Results on two molecules are retold here after patent US20230407298A1 (Johns Hopkins, published 2023).

The target in this assay is T1, XPO1 (human, UniProt O14980 1-1071).
T1 construct: Endogenous protein pulled down from iPSN nuclear lysates with mouse anti-XPO1 (Santa Cruz sc-74454) coupled to Protein G beads; also called CRM1; XPO1/CRM1
As to the kind of experiment: co-immunoprecipitation with anti-XPO1 from iPSN nuclear lysates, western blot. Here is the method: Nuclei were isolated from iPSNs as described above. The resulting nuclei pellet was lysed in 1 mL IP buffer by vortexing for 30-45 seconds. Nuclei lysates were centrifuged for 10 minutes at 2500 rpm and 4° C. to remove debris. Following centrifugation, the supernatant was transferred to a clean Eppendorf tube. 25 μL of the supernatant was added to μL 2× Laemmli buffer (BioRad) and set aside as protein input and an additional 25 μL supernatant was set aside on ice as RNA input. The remainder of the lysate was split equally between IgG and XPO1 antibody conjugated bead tubes. Lysates were incubated with beads with end over end rotation for 2 hours at 4° C. The unbound supernatant was discarded and immunoprecipitated complexes were washed 3×5 minutes in 200 μL IP buffer with end over end rotation at 4° C. Bead-IP complexes were resuspended in 200 μL IP buffer. 100 μL of each bead-IP complex sample was set aside for RNA analysis. For the remaining 100 μL, the supernatant was discarded and 50 μL 1× Laemmli buffer was added to bead-IP complexes. All RNA samples (including input) were added to 500 μL RLT Buffer (QIAGEN) and RNA isolation, cDNA synthesis, and qRT-PCR were performed as described below. Protein samples were analyzed by western blot as described below. Equal volumes of each sample (10 μL) were loaded in acrylamide gels. […]

T1 sequence (O14980 whole entry): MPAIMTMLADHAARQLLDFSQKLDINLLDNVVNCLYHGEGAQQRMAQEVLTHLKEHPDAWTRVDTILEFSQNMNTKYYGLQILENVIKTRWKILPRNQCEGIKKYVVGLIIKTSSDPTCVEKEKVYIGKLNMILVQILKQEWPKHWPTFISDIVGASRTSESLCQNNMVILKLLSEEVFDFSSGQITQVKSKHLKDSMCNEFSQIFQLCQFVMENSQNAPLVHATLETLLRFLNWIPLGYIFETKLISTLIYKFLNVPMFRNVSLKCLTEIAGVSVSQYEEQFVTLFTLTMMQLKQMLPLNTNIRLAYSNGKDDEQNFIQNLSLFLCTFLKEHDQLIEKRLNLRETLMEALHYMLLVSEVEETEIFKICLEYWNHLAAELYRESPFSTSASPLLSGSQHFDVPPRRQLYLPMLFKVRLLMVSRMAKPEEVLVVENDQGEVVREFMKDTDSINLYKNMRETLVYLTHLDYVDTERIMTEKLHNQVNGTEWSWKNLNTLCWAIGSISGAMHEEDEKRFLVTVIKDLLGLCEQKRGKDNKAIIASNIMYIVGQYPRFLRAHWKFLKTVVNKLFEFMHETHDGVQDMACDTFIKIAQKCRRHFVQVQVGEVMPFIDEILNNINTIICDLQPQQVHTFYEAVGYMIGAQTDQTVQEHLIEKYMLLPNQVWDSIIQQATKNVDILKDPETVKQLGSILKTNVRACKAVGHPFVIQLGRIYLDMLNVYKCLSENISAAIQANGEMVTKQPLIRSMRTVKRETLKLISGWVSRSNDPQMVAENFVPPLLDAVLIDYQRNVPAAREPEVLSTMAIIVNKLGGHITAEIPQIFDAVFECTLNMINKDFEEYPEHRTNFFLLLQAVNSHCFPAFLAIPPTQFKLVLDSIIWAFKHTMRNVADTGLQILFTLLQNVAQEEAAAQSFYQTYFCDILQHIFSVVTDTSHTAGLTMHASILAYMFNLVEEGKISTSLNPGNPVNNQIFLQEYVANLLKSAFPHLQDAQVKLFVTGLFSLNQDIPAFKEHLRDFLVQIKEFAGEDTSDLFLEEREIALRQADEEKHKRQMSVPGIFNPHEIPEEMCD

B1: Lamin B1 (other, human, UniProt P20700 2-583, looked up)
chain: ATATPVPPRMGSRAGGPTTPLSPTRLSRLQEKEELRELNDRLAVYIDKVRSLETENSALQLQVTEREEVRGRELTGLKALYETELADARRALDDTARERAKLQIELGKCKAEHDQLLLNYAKKESDLNGAQIKLREYEAALNSKDAALATALGDKKSLEGDLEDLKDQIAQLEASLAAAKKQLADETLLKVDLENRCQSLTEDLEFRKSMYEEEINETRRKHETRLVEVDSGRQIEYEYKLAQALHEMREQHDAQVRLYKEELEQTYHAKLENARLSSEMNTSTVNSAREELMESRMRIESLSSQLSNLQKESRACLERIQELEDLLAKEKDNSRRMLTDKEREMAEIRDQMQQQLNDYEQLLDVKLALDMEISAYRKLLEGEEERLKLSPSPSSRVTVSRASSSRSVRTTRGKRKRVDVEESEASSSVSISHSASATGNVCIEEIDVDGKFIRLKNTSEQDQPMGGWEMIRKIGDTSVSYKYTSRYVLKAGQTVTIWAANAGVTASPPTDLIWKNQNSWGTGEDVKVILKNSQGEEVAQRSTVFKTTIPEEEEEEEEAAGVVVEEELFHQQGTPRASNRSC
notes: Absent from XPO1 immunoprecipitates by western blot
In the case of B1, the binding result is recorded as “no binding”.

B2: LEMD2 (other, human, UniProt Q8NC56 2-503, looked up)
chain: AGLSDLELRRELQALGFQPGPITDTTRDVYRNKLRRLRGEARLRDEERLREEARPRGEERLREEARLREDAPLRARPAAASPRAEPWLSQPASGSAYATPGAYGDIRPSAASWVGSRGLAYPARPAQLRRRASVRGSSEEDEDARTPDRATQGPGLAARRWWAASPAPARLPSSLLGPDPRPGLRATRAGPAGAARARPEVGRRLERWLSRLLLWASLGLLLVFLGILWVKMGKPSAPQEAEDNMKLLPVDCERKTDEFCQAKQKAALLELLHELYNFLAIQAGNFECGNPENLKSKCIPVMEAQEYIANVTSSSSAKFEAALTWILSSNKDVGIWLKGEDQSELVTTVDKVVCLESAHPRMGVGCRLSRALLTAVTNVLIFFWCLAFLWGLLILLKYRWRKLEEEEQAMYEMVKKIIDVVQDHYVDWEQDMERYPYVGILHVRDSLIPPQSRRRMKRVWDRAVEFLASNESRIQTESHRVAGEDMLVWRWTKPSSFSDSER
notes: Absent from XPO1 immunoprecipitates by western blot; also called LEM2
For B2, the binding result was “no binding”.
